Measured values from patent publication US20260235593A1, “FRET BIOSENSOR RECOMBINANT PROTEINS” (The Regents of the University of California, priority 2023, published 2026).

Key:
Format in all cases: cell-based
PKA [1] = target: T1, PKA (Homo sapiens, UniProt P17612); assay: Multiplexed biosensor imaging in HEK293T cells: PKA activity (red/far-red HaloTag-AKAR); conditions: HEK293T cells co-expressing yellow/far-red HaloTag-EKAR and red/far-red HaloTag-AKAR; 100 ng/mL hEGF; Fsk and 100 μM IBMX together; M H89
T1 construct: endogenous in cells; host or cells: HEK293T; only the biosensors are transfected
Description: (§1) Cell culture and transfection HeLa and HEK293T cells were cultured in Dulbecco's modified Eagle medium (DMEM; Gibco) containing glucose (1 g/L) and supplemented with 10% (v/v) fetal bovine serum (Sigma-Aldrich) and 1% (v/v) penicillin-streptomycin (Pen-Strep; Sigma-Aldrich). NIH3T3 cells were cultured in DMEM (Gibco) containing glucose (1 g/L) and supplemented with 10% (v/v) fetal calf serum and 1% (v/v) Pen-Strep (Sigma-Aldrich). All cells were maintained in a humidified incubator at 37° C. with a 5% CO2 atmosphere. Before transfection, cells were plated onto sterile quartered 35-mm glass-bottomed dishes and grown to 50 to 70% confluence. Cells were then transfected using Lipofectamine 2000 (Invitrogen, HeLa) or PolyJet (SignaGen Laboratories, HEK293T and NIH3T3) and grown an additional 48 hours (HeLa, HEK293T) before imaging. NIH3T3 cells were changed to serum-free DMEM immediately before transfection, medium was changed to complete medium after 6 h. NIH3T3 cells were then serum-starved for 24 hours before imaging. HaloTag labeling was performed 24 h before imaging using synthetic fluorophores (Fluorophore-CA 500 nM, 24 h, 37° C.) in the respective medium. Synthetic fluorophores were kindly provided by Luke Lavis (Janelia Research Campus, JF669-CA, JFX646-CA and JF635) or Kai Johnsson (Max Planck Institute for Medical Research (Germany) and EPFL (Switzerland), NGD-CA). […]

ERK = assay: Multiplexed biosensor imaging in HEK293T cells: ERK activity (yellow/far-red HaloTag-EKAR); conditions: HEK293T cells co-expressing yellow/far-red HaloTag-EKAR and red/far-red HaloTag-AKAR; 100 ng/mL hEGF
Description: as §1

PKA [2] = assay: HaloTag-based FluoSTEP-AKAR co-expressed with FP11-Actin in HeLa cells, Fsk/IBMX stimulation
Description: Recently, anew biosensor design was developed using self-complementing split green FP (GFP) as the FRET donor. The self-complementation allowed the biosensors to be recruited and reconstituted at proteins of interest (POI) endogenously tagged with the FPs eleventh-strand (FP11). This allowed researchers to monitor compartmentalized signaling within endogenous microdomains without overexpressing the POI^[11]. However, this concept, fluorescent biosensors targeted to endogenous proteins (FluoSTEPs), suffers from two major limitations: low dynamic range and low brightness^[11]. Given the promising dynamic range achieved using HaloTag^(JF669) as a FRET acceptor in KARs, we decided to introduce HaloTag into FluoSTEP-AKAR. We replaced mRuby2 in FluoSTEP-AKAR with HaloTag and additionally introduced the EV linker to further increase the dynamic range. In order to address the limitation of low brightness of sfGFP as a FRET donor, we tested the use of two different split mNeonGreen (mNG) versions: split mNeonGreen2 (mNG2)^[22] and split mNeonGreen3A (mNG3A)[^21] in parallel (FIG. 8A). We co-expressed the generated biosensors with FP11-Actin in HeLa cells and used Fsk and IBMX to stimulate the reporters to monitor PKA signal. […] Consistent with previous results biosensors with HaloTag at the C-terminus performed best. […]

PKA [3] = assay: FluoSTEP-AKAR in HeLa cells endogenously expressing mNG11 (knock-in), Fsk/IBMX treatment; conditions: HeLa-mNG11-β-Actin, HeLa-mNG11-clathrin and HeLa-mNG11-ezrin cells; 50 M Fsk and 100 μM IBMX
Description: Using our enhanced HaloTag-based FluoSTEPs mNG3A(1-10)-FHA1-xx aa EV linker-PKA substrate-HaloTag^(JF669) (xx=220 and 116 aa) we measured PKA activation upon treatment with 50 M Fsk and 100 μM IBMX in HeLa cells endogenously expressing mNG11 at different locations (CRISPER-mediated knock-in).

| Molecule | PKA activity (PKA [1]) | ERK activity (ERK) | increase when stimulated (dynamic range) (PKA [2]; HeLa cells co-expressing FP11-Actin, Fsk and IBMX, HaloTag labeled with JF669, mean±SEM) | dynamic range relative to the conventional FluoSTEP (PKA [2]; same experimental conditions, conventional FluoSTEP-AKAR of reference [11]) | response (PKA activation) compared between EV linker lengths (PKA [3]) |
| --- | --- | --- | --- | --- | --- |
| hEGF: human epidermal growth factor (protein, UniProt P01133 23-1207, looked up, Pro-epidermal growth factor) Pro-epidermal growth factor: PQHWSCPEGTLAGNGNSTCVGPAPFLIFSHGNSIFRIDTEGTNYEQLVVDAGVSVIMDFHYNEKRIYWVDLERQLLQRVFLNGSRQERVCNIEKNVSGMAINWINEEVIWSNQQEGIITVTDMKGNNSHILLSALKYPANVAVDPVERFIFWSSEVAGSLYRADLDGVGVKALLETSEKITAVSLDVLDKRLFWIQYNREGSNSLICSCDYDGGSVHISKHPTQHNLFAMSLFGDRIFYSTWKMKTIWIANKHTGKDMVRINLHSSFVPLGELKVVHPLAQPKAEDDTWEPEQKLCKLRKGNCSSTVCGQDLQSHLCMCAEGYALSRDRKYCEDVNECAFWNHGCTLGCKNTPGSYYCTCPVGFVLLPDGKRCHQLVSCPRNVSECSHDCVLTSEGPLCFCPEGSVLERDGKTCSGCSSPDNGGCSQLCVPLSPVSWECDCFPGYDLQLDEKSCAASGPQPFLLFANSQDIRHMHFDGTDYGTLLSQQMGMVYALDHDPVENKIYFAHTALKWIERANMDGSQRERLIEEGVDVPEGLAVDWIGRRFYWTDRGKSLIGRSDLNGKRSKIITKENISQPRGIAVHPMAKRLFWTDTGINPRIESSSLQGLGRLVIASSDLIWPSGITIDFLTDKLYWCDAKQSVIEMANLDGSKRRRLTQNDVGHPFAVAVFEDYVWFSDWAMPSVMRVNKRTGKDRVRLQGSMLKPSSLVVVHPLAKPGADPCLYQNGGCEHICKKRLGTAWCSCREGFMKASDGKTCLALDGHQLLAGGEVDLKNQVTPLDILSKTRVSEDNITESQHMLVAEIMVSDQDDCAPVGCSMYARCISEGEDATCQCLKGFAGDGKLCSDIDECEMGVPVCPPASSKCINTEGGYVCRCSEGYQGDGIHCLDIDECQLGEHSCGENASCTNTEGGYTCMCAGRLSEPGLICPDSTPPPHLREDDHHYSVRNSDSECPLSHDGYCLHDGVCMYIEALDKYACNCVVGYIGERCQYRDLKWWELRHAGHGQQQKVIVVAVCVVVLVMLLLLSLWGAHYYRTQKLLSKNPKNPYEESSRDVRSRRPADTEDGMSSCPQPWFVVIKEHQDLKNGGQPVAGEDGQAADGSMQPTSWRQEPQLCGMGTEQGCWIPVSSDKGSCPQVMERSFHMPSYGTQTLEGGVEKPHSLLSANPLWQQRALDPPHQMELTQ | increase in both ERK and PKA activity | increase in both ERK and PKA activity |  |  |  |
| mNG3A(1-10)-FHA1-EV linker-PKA substrate-HaloTag^(JF669): enhanced FluoSTEP-AKAR: split mNG3A donor, HaloTag^(JF669) acceptor, 116 aa EV linker (protein) MVSKGEEDNMASLPATHELHIFGSINGVDFDMVGQGTGNPNDGYEELNLKSTKGDLQFSPWILVPHIGYGFHQYLPYPDGMSPFQAAMVDGSGYQVHRTMQFEDGASLTVNYRYTYEGSHIKGEAQVMGTGFPADGPVMTNTLTAADLCVSKMTYPNDKTIISTFKWSYTTVNGKRYRSTARTTYTFAKPMAAKYLKNQPMYVLRKTELKHSMWTFGRNPACDYHLGNISRLSNKHFQILLGEDGNLLLNDISTNGTWLNGQKVSAGGSAGGSAGGSAGGSAGGSGSAGGSAGGSTSAGGSAGGSAGGSAGGSAGGSGSAGGSAGGSTSAGGSAGGSAGGSAGGSAGGSGSAGGSAGGSTSAGGSAGGSAGGSAGGSAGGLRRATLVDGGTGGSELMGSEIGTGFPFDPHYVEVLGERMHYVDVGPRDGTPVLFLHGNPTSSYVWRNIIPHVAPTHRCIAPDLIGMGKSDKPDLGYFFDDHVRFMDAFIEALGLEEVVLVIHDWGSALGFHWAKRNPERVKGIAFMEFIRPIPTWDEWPEFARETFQAFRTTDVGRKLIIDQNVFIEGTLPMGVVRPLTEVEMDHYREPFLNPVDREPLWRFPNELPIAGEPANIVALVEEYMDWLHQSPVPKLLFWGTPGVLIPPAEAARLAKSLPNCKAVDIGPGLNLLQEDNPDLIGSEIARWLSTLEISG |  |  | 71.1%±3.1% | about 8 times | diminished response compared to the sensor with the 220 aa EV linker |
